Values of other authors in patent US20230250195A1, “Methods for Reducing Infusion-Related Reactions in Patients Treated with EGFR/Met Bispecific Antibodies” (Janssen Biotech, Inc., priority 2022, published 2023).

Conditions: 302 patients with locally advanced or metastatic NSCLC; IV amivantamab at recommended Phase 2 dose (RP2D) as a single agent

Substance: amivantamab: IgG1 anti-EGFR/c-Met bispecific antibody described in U.S. Pat. No. 9,593,164
- incidence of infusion-related reactions (IRRs): 66%
